In article PMC3986302 (International Journal of Nanomedicine, 2014):

Target: T1, full-length p63 (GST-fusion) (human, UniProt Q9H3D4 1-680)
T1 sequence (looked up): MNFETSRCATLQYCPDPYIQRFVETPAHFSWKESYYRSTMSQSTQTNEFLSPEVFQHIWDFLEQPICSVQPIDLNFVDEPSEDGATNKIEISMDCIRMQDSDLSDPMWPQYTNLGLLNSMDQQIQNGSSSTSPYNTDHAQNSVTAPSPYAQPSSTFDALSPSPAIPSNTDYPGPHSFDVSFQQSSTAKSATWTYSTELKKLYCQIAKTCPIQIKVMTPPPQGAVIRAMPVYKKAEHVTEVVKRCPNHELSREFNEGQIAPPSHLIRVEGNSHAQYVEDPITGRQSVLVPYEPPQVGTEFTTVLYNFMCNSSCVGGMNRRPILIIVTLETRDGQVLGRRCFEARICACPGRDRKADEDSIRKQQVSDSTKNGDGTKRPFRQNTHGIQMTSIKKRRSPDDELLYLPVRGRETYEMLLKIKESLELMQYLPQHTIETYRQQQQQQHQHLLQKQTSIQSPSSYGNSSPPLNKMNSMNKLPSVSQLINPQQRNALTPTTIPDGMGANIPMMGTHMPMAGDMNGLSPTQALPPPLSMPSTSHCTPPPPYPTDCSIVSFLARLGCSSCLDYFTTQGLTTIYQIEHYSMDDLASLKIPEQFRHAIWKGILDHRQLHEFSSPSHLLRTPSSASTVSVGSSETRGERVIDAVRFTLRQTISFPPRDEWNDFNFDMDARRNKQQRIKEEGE
Test: atomic force spectroscopy

binding result: binds
Binder: LSTAADMQGVVTDGMASGLDKDYLKPDD [p28]
